Positions count from the first letter of the chain named.
How the values were obtained:
Assay in all cases: cell_activity
Conditions in all cases: PAM 5'-GCTG-3'; HEK293T; averaged over AAVS1, VEGFA, EMX1 targets
[1] = system: T1, CRISPR nuclease variant I521R I521R (synthetic construct)
T1 sequence: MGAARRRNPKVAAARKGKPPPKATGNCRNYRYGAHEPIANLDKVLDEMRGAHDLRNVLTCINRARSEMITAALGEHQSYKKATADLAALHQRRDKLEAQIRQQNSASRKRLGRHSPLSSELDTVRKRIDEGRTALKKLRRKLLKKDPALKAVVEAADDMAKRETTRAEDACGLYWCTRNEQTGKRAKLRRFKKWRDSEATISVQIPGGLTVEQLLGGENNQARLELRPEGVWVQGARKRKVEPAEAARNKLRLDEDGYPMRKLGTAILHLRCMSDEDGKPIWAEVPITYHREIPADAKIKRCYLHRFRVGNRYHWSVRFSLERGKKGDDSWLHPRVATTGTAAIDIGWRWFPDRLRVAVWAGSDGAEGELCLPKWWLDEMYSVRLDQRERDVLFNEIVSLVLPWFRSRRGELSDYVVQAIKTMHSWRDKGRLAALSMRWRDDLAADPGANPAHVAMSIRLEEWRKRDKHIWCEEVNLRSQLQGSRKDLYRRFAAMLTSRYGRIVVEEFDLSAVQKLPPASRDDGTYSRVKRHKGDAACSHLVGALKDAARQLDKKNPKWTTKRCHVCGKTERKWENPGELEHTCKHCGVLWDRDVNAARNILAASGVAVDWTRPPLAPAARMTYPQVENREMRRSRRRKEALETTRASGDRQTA

[2] = system: T2, CRISPR nuclease variant D535G,L516R,I521R D535G,L516R,I521R (synthetic construct)
T2 sequence: T1 sequence with L516R, D535G

[3] = system: T3, CRISPR nuclease variant D509R D509R (synthetic construct)
T3 sequence: T1 sequence with D509R, R521I

[4] = system: T4, CRISPR nuclease variant K136G,N220R,M380R K136G,N220R,M380R (synthetic construct)
T4 sequence: T1 sequence with K136G, N220R, M380R, R521I

For “GGUCCCAUCGGAACGGGUUGUGGUUCCGACGGAGGGAUACAUUGGUGGGG / GGAGGGATACATTGGTGGGG / CCCCACCAATGTATCCCTCC [AAVS1 crRNA (Table 5) ; AAVS1 target (Table 5)]”, the binding signal (fold indels vs WT) [1] was 3.57, the binding signal (fold indels vs WT) [2] was 3.59 and the binding signal (fold indels vs WT) [3] was 3.91. It also gave a binding signal (fold indels vs WT) [4] of 4.54.
